Measurements reported in the supplement of paper PMC10724198.
± gives the standard deviation of the averaged measurements.
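Note: PSI is a weighted mean of sequencing reads over stability bins, variants kept only with over 10 reads, mCherry proximal and sfGFP distal, peptide attached via GGGS linker.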

The sequences below were run on Saccharomyces cerevisiae (assay: protein stability index of tFT-peptide fusion (C-terminal peptide) (PSI (0-1 scale)); higher = more stable (slower turnover)). Settings: genetic background: cdc34-1; temperature: 37 C.
Method: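 MPS profiling in S. cerevisiae of the tFT-X12 degron library: putative degron peptides plus stable controls, 12 aa, fused to the C-terminus of a sfGFP-mCherry timer. Cells are FACS-sorted into 8 mCherry/sfGFP bins and deep-sequenced. PSI runs from 0 (unstable) to 1 (stable). Backgrounds are wild type, das1Δ and doa10Δ at 30 °C, and wild type, das1Δ, cdc34-1 and cdc53-1 at 37 °C; 2-3 technical replicates each.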
LVACLGYAVYCL was tested, and the protein stability index was 0.529 ± 0.042.
With LVCFFLFSLFYL the protein stability index was 0.433 ± 0.02.
LVFCFRSLFLCS gave a protein stability index of 0.57 ± 0.057.
LVFRIRNANRLV gave a protein stability index of 0.615 ± 0.046.
Sequence LVFSVIPVLFVL has a protein stability index of 0.454 ± 0.011.
LVGTRTIFCFLH was tested, and the protein stability index was 0.618 ± 0.017.
LVGWSWAACWLA gave a protein stability index of 0.522 ± 0.057.
In the case of LVILRCAFPVYG, the protein stability index is reported as 0.469 ± 0.011.
LVLFVCFSLFMR showed a protein stability index of 0.153 ± 0.0065.
With LVLPAFLLLLYP the protein stability index was 0.2108 ± 0.0018.
Sequence LVLVLAVFGCHD has a protein stability index of 0.397 ± 0.022.
LVNSPSISSLWL gave a protein stability index of 0.695 ± 0.019.
With LVSLLYFIVSLF the protein stability index was 0.516 ± 0.013.
Sequence LVTRVFVYFSIG has a protein stability index of 0.498 ± 0.061.
LVVEALFYVLVS was tested, and the protein stability index was 0.036 ± 0.011.
For LVVFFPVLPIFG, the protein stability index was 0.504 ± 0.02.
LVVRLFVWDVVW gave a protein stability index of 0.34 ± 0.016.
With LWAVGWIIYFIV the protein stability index was 0.0967 ± 0.0059.
Sequence LWLISTYQLIGI has a protein stability index of 0.454 ± 0.021.
For MALAVRVVWCGA, the protein stability index was 0.179 ± 0.014.
MCFFVFVLFLFC gave a protein stability index of 0.307 ± 0.034.
MLVWCLFWVACV was tested, and the protein stability index was 0.203 ± 0.026.
Sequence MRMEGPLALSVR has a protein stability index of 0.5519 ± 0.005.
Work on MRVCLCLMLIVN yielded a protein stability index of 0.179 ± 0.024.
In the case of NARNPKKNRDQI, the protein stability index is reported as 0.697 ± 0.037.
Sequence NFFYLFLSFGFG has a protein stability index of 0.523 ± 0.076.
NGSCRVVMYIKG gave a protein stability index of 0.667 ± 0.014.
NKEEHQQKQRIH gave a protein stability index of 0.636 ± 0.04.
NKTTKNKKRKLS showed a protein stability index of 0.467 ± 0.081.
Sequence NKYNQFKWHINH has a protein stability index of 0.624 ± 0.12.
NRLHYSPLYTIY was tested, and the protein stability index was 0.641 ± 0.087.
NSFASFVVVFVI was tested, and the protein stability index was 0.371 ± 0.018.
NTDRRNICKISS showed a protein stability index of 0.493 ± 0.031.
Sequence NTREGFIILARA has a protein stability index of 0.523 ± 0.014.
PACFPPPSPFAP showed a protein stability index of 0.643 ± 0.056.
Work on PFDTPSHPNPLF yielded a protein stability index of 0.707 ± 0.034.
For PFGYYLFVPVCY, the protein stability index was 0.29 ± 0.0094.
PFLPFPPPLPAY was tested, and the protein stability index was 0.4873 ± 0.0045.
In the case of PFYAYHFSLSVY, the protein stability index is reported as 0.13 ± 0.006.
PIFFFGRLLFFL was tested, and the protein stability index was 0.545 ± 0.045.
In the case of PLCCFFLLVCSH, the protein stability index is reported as 0.117 ± 0.022.
For PLFPPTDSPSPN, the protein stability index was 0.7098 ± 0.0063.
Sequence PLFVLTILLFLC has a protein stability index of 0.165 ± 0.042.
PLGGLVILLLSS showed a protein stability index of 0.488 ± 0.017.
Sequence PLLALTSWLFFV has a protein stability index of 0.5467 ± 0.0033.
PLPHTPAPPPFP showed a protein stability index of 0.6774 ± 0.0011.
PLSRLLPLYFLL gave a protein stability index of 0.405 ± 0.015.
Sequence PPHPLHIPRRLA has a protein stability index of 0.631 ± 0.025.
PPLSRLAVFIVV showed a protein stability index of 0.4397 ± 0.0027.
PPRPSPPPHPLP was tested, and the protein stability index was 0.658 ± 0.028.
PPVRCVRLPLSS gave a protein stability index of 0.687 ± 0.035.
Work on PRFRALLLIPVR yielded a protein stability index of 0.0611 ± 0.016.
In the case of PRGFVRVDLLIF, the protein stability index is reported as 0.302 ± 0.021.
With PRGKGSSGELCV the protein stability index was 0.683 ± 0.038.
Sequence PRPISRRTLILS has a protein stability index of 0.642 ± 0.047.
With PRVPILVVFCSF the protein stability index was 0.423 ± 0.013.
PSFVEVAFAVCC showed a protein stability index of 0.569 ± 0.037.
Sequence PTKRLFNNNKKI has a protein stability index of 0.589 ± 0.13.
Work on PWAQCVLLWVVV yielded a protein stability index of 0.459 ± 0.043.
Work on PWIASCRISFLL yielded a protein stability index of 0.6766 ± 0.0032.
With QARVFWIIIGTA the protein stability index was 0.33 ± 0.029.
QFLSLSLPFALF was tested, and the protein stability index was 0.7057 ± 0.0026.
QHIDTLAKTHIT gave a protein stability index of 0.73 ± 0.036.
In the case of QTGRVRGFVVSG, the protein stability index is reported as 0.689 ± 0.037.
Sequence RALCPVPLLASS has a protein stability index of 0.55 ± 0.0098.
RCFLPVFCFVVF gave a protein stability index of 0.275 ± 0.0069.
Sequence RDWCYFIRVCSV has a protein stability index of 0.604 ± 0.064.
RFACHDFVVLLC showed a protein stability index of 0.568 ± 0.023.
Work on RFFLFVFFCFGF yielded a protein stability index of 0.384 ± 0.0046.
In the case of RFLCFDSVLTLC, the protein stability index is reported as 0.626 ± 0.011.
RFQKTRIFRCLC gave a protein stability index of 0.455 ± 0.002.
RFTCCISLSFLM was tested, and the protein stability index was 0.498 ± 0.013.
Work on RFTFSVVFCLSF yielded a protein stability index of 0.465 ± 0.011.
RGDWPVFIQVKA was tested, and the protein stability index was 0.285 ± 0.032.
For RGGGGGTWVKMG, the protein stability index was 0.592 ± 0.011.
RHCCIVPLCRVR was tested, and the protein stability index was 0.491 ± 0.061.
Work on RHSFSRVKLIQF yielded a protein stability index of 0.593 ± 0.046.
RILKEFKRIAVL showed a protein stability index of 0.501 ± 0.05.

Same assay, conditions: genetic background: cdc53-1; temperature: 37 C
For LVACLGYAVYCL, the protein stability index was 0.557 ± 0.03.
LVCFFLFSLFYL showed a protein stability index of 0.479 ± 0.018.
For LVFCFRSLFLCS, the protein stability index was 0.603 ± 0.0097.
With LVFRIRNANRLV the protein stability index was 0.7144 ± 0.0041.
LVFSVIPVLFVL was tested, and the protein stability index was 0.474 ± 0.025.
Sequence LVGTRTIFCFLH has a protein stability index of 0.721 ± 0.0084.
LVGWSWAACWLA was tested, and the protein stability index was 0.608 ± 0.029.
In the case of LVILRCAFPVYG, the protein stability index is reported as 0.529 ± 0.0084.
Work on LVLFVCFSLFMR yielded a protein stability index of 0.166 ± 0.037.
LVLPAFLLLLYP showed a protein stability index of 0.183 ± 0.022.
Work on LVLVLAVFGCHD yielded a protein stability index of 0.543 ± 0.079.
LVNSPSISSLWL showed a protein stability index of 0.736 ± 0.034.
Sequence LVSLLYFIVSLF has a protein stability index of 0.579 ± 0.033.
In the case of LVTRVFVYFSIG, the protein stability index is reported as 0.583 ± 0.035.
LVVEALFYVLVS was tested, and the protein stability index was 0.0563 ± 0.025.
Sequence LVVFFPVLPIFG has a protein stability index of 0.554 ± 0.0072.
LVVRLFVWDVVW gave a protein stability index of 0.374 ± 0.028.
With LWAVGWIIYFIV the protein stability index was 0.245 ± 0.014.
Sequence LWLISTYQLIGI has a protein stability index of 0.583 ± 0.048.
With MALAVRVVWCGA the protein stability index was 0.179 ± 0.024.
MCFFVFVLFLFC was tested, and the protein stability index was 0.398 ± 0.12.
Sequence MLVWCLFWVACV has a protein stability index of 0.29 ± 0.0085.
MRMEGPLALSVR gave a protein stability index of 0.558 ± 0.016.
Work on MRVCLCLMLIVN yielded a protein stability index of 0.282 ± 0.031.
In the case of NARNPKKNRDQI, the protein stability index is reported as 0.7226 ± 0.0072.
In the case of NFFYLFLSFGFG, the protein stability index is reported as 0.565 ± 0.034.
Sequence NGSCRVVMYIKG has a protein stability index of 0.731 ± 0.022.
NKEEHQQKQRIH was tested, and the protein stability index was 0.711 ± 0.02.
Sequence NKTTKNKKRKLS has a protein stability index of 0.612 ± 0.048.
NKYNQFKWHINH was tested, and the protein stability index was 0.698 ± 0.014.
In the case of NRLHYSPLYTIY, the protein stability index is reported as 0.735 ± 0.033.
In the case of NSFASFVVVFVI, the protein stability index is reported as 0.437 ± 0.047.
In the case of NTDRRNICKISS, the protein stability index is reported as 0.671 ± 0.059.
NTREGFIILARA gave a protein stability index of 0.537 ± 0.018.
For PACFPPPSPFAP, the protein stability index was 0.741 ± 0.026.
PFDTPSHPNPLF gave a protein stability index of 0.789 ± 0.086.
Sequence PFGYYLFVPVCY has a protein stability index of 0.343 ± 0.021.
Work on PFLPFPPPLPAY yielded a protein stability index of 0.553 ± 0.015.
Sequence PFYAYHFSLSVY has a protein stability index of 0.164 ± 0.0048.
In the case of PIFFFGRLLFFL, the protein stability index is reported as 0.592 ± 0.022.
Work on PLCCFFLLVCSH yielded a protein stability index of 0.166 ± 0.005.
PLFPPTDSPSPN gave a protein stability index of 0.729 ± 0.051.
Work on PLFVLTILLFLC yielded a protein stability index of 0.314 ± 0.036.
For PLGGLVILLLSS, the protein stability index was 0.541 ± 0.0075.
Work on PLLALTSWLFFV yielded a protein stability index of 0.6521 ± 0.0011.
With PLPHTPAPPPFP the protein stability index was 0.728 ± 0.0098.
PLSRLLPLYFLL was tested, and the protein stability index was 0.547 ± 0.00061.
In the case of PPHPLHIPRRLA, the protein stability index is reported as 0.724 ± 0.026.
In the case of PPLSRLAVFIVV, the protein stability index is reported as 0.487 ± 0.052.
Work on PPRPSPPPHPLP yielded a protein stability index of 0.7181 ± 0.0022.
PPVRCVRLPLSS was tested, and the protein stability index was 0.744 ± 0.0097.
PRFRALLLIPVR gave a protein stability index of 0.158 ± 0.029.
With PRGFVRVDLLIF the protein stability index was 0.481 ± 0.07.
PRGKGSSGELCV gave a protein stability index of 0.7344 ± 0.0044.
With PRPISRRTLILS the protein stability index was 0.7053 ± 0.0034.
PRVPILVVFCSF showed a protein stability index of 0.452 ± 0.014.
With PSFVEVAFAVCC the protein stability index was 0.555 ± 0.039.
Sequence PTKRLFNNNKKI has a protein stability index of 0.686 ± 0.057.
PWAQCVLLWVVV was tested, and the protein stability index was 0.495 ± 0.021.
Work on PWIASCRISFLL yielded a protein stability index of 0.734 ± 0.014.
Sequence QARVFWIIIGTA has a protein stability index of 0.412 ± 0.03.
QFLSLSLPFALF was tested, and the protein stability index was 0.763 ± 0.014.
In the case of QHIDTLAKTHIT, the protein stability index is reported as 0.74493 ± 0.00055.
With QTGRVRGFVVSG the protein stability index was 0.726 ± 0.024.
RALCPVPLLASS showed a protein stability index of 0.59 ± 0.034.
In the case of RCFLPVFCFVVF, the protein stability index is reported as 0.272 ± 0.0068.
RDWCYFIRVCSV was tested, and the protein stability index was 0.616 ± 0.017.
RFACHDFVVLLC was tested, and the protein stability index was 0.605 ± 0.022.
RFFLFVFFCFGF was tested, and the protein stability index was 0.387 ± 0.038.
Sequence RFLCFDSVLTLC has a protein stability index of 0.6674 ± 0.0055.
Sequence RFQKTRIFRCLC has a protein stability index of 0.66 ± 0.015.
RFTCCISLSFLM gave a protein stability index of 0.492 ± 0.044.
RFTFSVVFCLSF showed a protein stability index of 0.5 ± 0.018.
With RGDWPVFIQVKA the protein stability index was 0.309 ± 0.04.
Sequence RGGGGGTWVKMG has a protein stability index of 0.733 ± 0.0075.
For RHCCIVPLCRVR, the protein stability index was 0.512 ± 0.013.
RHSFSRVKLIQF was tested, and the protein stability index was 0.6834 ± 0.00096.
In the case of RILKEFKRIAVL, the protein stability index is reported as 0.687 ± 0.092.
